# Results published in publication PMC12205651, “A 36-base hairpin within lncRNA DRAIC, which is modulated by alternative splicing, interacts with the IKKα coiled-coil domain and inhibits NF-κB and tumor cell phenotypes”.
# T1: IKKα-His (UniProt O15111)
# T1 sequence: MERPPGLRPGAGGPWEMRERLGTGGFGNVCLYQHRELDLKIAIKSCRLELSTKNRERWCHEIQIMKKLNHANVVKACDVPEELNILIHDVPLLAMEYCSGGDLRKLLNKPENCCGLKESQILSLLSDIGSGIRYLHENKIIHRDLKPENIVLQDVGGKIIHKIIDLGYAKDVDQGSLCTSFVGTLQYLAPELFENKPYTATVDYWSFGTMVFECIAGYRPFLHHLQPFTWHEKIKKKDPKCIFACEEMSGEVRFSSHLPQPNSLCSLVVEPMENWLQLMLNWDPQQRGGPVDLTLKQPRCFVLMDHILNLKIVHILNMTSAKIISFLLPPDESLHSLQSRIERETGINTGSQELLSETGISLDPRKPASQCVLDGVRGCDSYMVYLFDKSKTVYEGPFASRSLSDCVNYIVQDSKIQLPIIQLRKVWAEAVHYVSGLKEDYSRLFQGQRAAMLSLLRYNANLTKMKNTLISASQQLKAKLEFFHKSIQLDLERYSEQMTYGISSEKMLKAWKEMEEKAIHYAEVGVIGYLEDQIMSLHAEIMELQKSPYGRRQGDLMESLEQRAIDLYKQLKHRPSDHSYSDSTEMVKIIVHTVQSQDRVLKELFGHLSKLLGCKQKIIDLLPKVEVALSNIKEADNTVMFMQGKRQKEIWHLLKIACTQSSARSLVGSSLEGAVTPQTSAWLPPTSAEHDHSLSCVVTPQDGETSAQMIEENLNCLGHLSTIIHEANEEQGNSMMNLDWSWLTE
# T2: MBP-IKKα-6His (UniProt O15111 1-745)
# T2 sequence: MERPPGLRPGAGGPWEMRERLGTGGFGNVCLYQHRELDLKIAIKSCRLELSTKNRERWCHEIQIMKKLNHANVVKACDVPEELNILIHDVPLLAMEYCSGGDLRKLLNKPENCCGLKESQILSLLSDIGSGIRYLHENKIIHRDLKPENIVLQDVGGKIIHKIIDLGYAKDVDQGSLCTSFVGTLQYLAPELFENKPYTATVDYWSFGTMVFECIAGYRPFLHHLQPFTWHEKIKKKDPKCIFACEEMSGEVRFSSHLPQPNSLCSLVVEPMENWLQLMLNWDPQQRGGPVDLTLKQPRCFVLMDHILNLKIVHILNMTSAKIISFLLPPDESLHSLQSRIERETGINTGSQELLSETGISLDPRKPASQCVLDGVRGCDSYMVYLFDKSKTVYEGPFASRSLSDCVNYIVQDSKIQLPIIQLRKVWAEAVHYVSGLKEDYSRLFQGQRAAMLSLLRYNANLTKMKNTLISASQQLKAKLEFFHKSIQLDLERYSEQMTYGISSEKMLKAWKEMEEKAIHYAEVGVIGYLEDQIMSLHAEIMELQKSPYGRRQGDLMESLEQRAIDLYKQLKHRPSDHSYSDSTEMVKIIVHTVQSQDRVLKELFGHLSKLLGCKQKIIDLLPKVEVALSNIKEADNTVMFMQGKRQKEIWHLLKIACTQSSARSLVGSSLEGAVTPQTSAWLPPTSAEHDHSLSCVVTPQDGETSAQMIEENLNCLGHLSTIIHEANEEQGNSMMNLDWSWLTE
# Legend:
# IKKα-His [1] = molecular target: T1, IKKα-His; test: pull-down (in vitro RIP-qPCR); details: SPR: 10 mM HEPES pH 7.4, 150 mM NaCl, 3 mM EDTA, 0.05% P20, 25 °C; pull-down: 25 mM HEPES pH 7.5, 150 mM NaCl, 0.05% NP-40, 10% glycerol, RT; EMSA: LightShift …
# IKKα-His [2] = molecular target: T1, IKKα-His; test: SPR; details: SPR: 10 mM HEPES pH 7.4, 150 mM NaCl, 3 mM EDTA, 0.05% P20, 25 °C; pull-down: 25 mM HEPES pH 7.5, 150 mM NaCl, 0.05% NP-40, 10% glycerol, RT; EMSA: LightShift …
# GST-NEMO = GST-NEMO (UniProt Q9Y6K9 1-419); test: SPR; biotin RNA immobilized; SPR: 10 mM HEPES pH 7.4, 150 mM NaCl, 3 mM EDTA, 0.05% P20, 25 °C; pull-down: 25 mM HEPES pH 7.5, 150 mM NaCl, 0.05% NP-40, 10% glycerol, RT; EMSA: LightShift kit, 22 °C, 25 min; details: protein: recombinant; tags: GST; chain copies: 2; label: 5' biotin; hairpin
# MBP-IKKα-6His = molecular target: T2, MBP-IKKα-6His; test: SPR; biotin RNA immobilized on NeutrAvidin chip, protein analyte; text gives 6.09 ± 1.08 nM; SPR: 10 mM HEPES pH 7.4, 150 mM NaCl, 3 mM EDTA, 0.05% P20, 25 °C; pull-down: 25 mM HEPES pH 7.5, 150 mM NaCl, 0.05% NP-40, 10% glycerol, RT; EMSA: LightShift kit, 22 °C, 25 min; details: protein: recombinant; tags: N-term MBP (pMAL-c5X), C-term His6; chain copies: 2; label: 5' biotin; hairpin
# Chain of GST-NEMO (Q9Y6K9 whole entry): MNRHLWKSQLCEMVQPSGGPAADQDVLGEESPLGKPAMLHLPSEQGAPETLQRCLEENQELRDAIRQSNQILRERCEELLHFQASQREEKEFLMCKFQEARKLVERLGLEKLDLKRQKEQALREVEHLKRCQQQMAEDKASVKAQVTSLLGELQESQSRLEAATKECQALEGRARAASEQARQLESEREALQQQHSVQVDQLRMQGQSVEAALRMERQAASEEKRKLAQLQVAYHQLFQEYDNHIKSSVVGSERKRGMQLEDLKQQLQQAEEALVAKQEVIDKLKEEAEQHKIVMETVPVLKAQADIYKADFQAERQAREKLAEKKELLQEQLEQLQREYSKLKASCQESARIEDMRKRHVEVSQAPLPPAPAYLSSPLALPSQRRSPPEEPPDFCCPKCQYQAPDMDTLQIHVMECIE
molecule,measurement,setting,value
GGGAGAUUGGAAUAACUUGCAGUGUCUUGCAGUAUUGUGAAACCAGCAACUUGUUCACAAUUCUUCUGAAUUUCUUGGGAAAUUUGAAGUGGAGUACCUGUACCAACAUGAAAUGACACGAAUUUAAGUGACGCUCAACAACGAAAAGCAAAAAGAACCAAAGAGGAAGCAACUGAAACAACAUCUGGAUGUAUUUAAAAAUAUACAAUGCCUCCAAAAUCAGGUGUCAUUAAUGAAAAUUCUGAAGAAAUG [DRAIC 705-950],binding,IKKα-His [1],binds
UUGGAAUAACUUGCAGUGCCAGCAACUUGUUCACAA [A+B DRAIC RNA],Kd,IKKα-His [2],0.541 nM
UUGGAAUAACUUGCAGUGCCAGCAACUUGUUCACAA (structured_RNA) [5'-biotin A+B DRAIC RNA],binding result,GST-NEMO,no binding
same,Kd,MBP-IKKα-6His,6.29 ± 1.08 nM
